Measurements reported in IntAct's records for PubMed 22045334.

B1: Mothers against decapentaplegic homolog 3 (Homo sapiens), P84022 (parent)
chain: MSSILPFTPPIVKRLLGWKKGEQNGQEEKWCEKAVKSLVKKLKKTGQLDELEKAITTQNVNTKCITIPRSLDGRLQVSHRKGLPHVIYCRLWRWPDLHSHHELRAMELCEFAFNMKKDEVCVNPYHYQRVETPVLPPVLVPRHTEIPAEFPPLDDYSHSIPENTNFPAGIEPQSNIPETPPPGYLSEDGETSDHQMNHSMDAGSPNLSPNPMSPAHNNLDLQPVTYCEPAFWCSISYYELNQRVGETFHASQPSMTVDGFTDPSNSERFCLGLLSNVNRNAAVELTRRHIGRGVRLYYIGGEVFAECLSDSAIFVQSPNCNQRYGWHPATVCKIPPGCNLKIFNNQEFAALLAQSVNQGFEAVYQLTRMCTIRMSFVKGWGAEYRRQTVTSTPCWIELHLNGPLQWLDKVLTQMGSPSIRCSSVS

Variants of: B1
Conditions: with ubc_human UBC

| Variant | effect of a mutation on the interaction |
| --- | --- |
| K333R | decreasing interaction |
| K341R | decreasing interaction |
| K378R | decreasing interaction |
| K409R | decreasing interaction |

Variants of: B1
Conditions: with smad4_human SMAD4, Q13485

| Variant | effect of a mutation on the interaction |
| --- | --- |
| K333R;K378R;K409R | decreasing interaction |
| K333R;K341R;K378R;K409R | decreasing interaction |

Variants of: B1
Conditions: with smuf2_human SMURF2, Q9HAU4

| Variant | effect of a mutation on the interaction |
| --- | --- |
| T179V;S204A;S208A;S213A | disrupting interaction |
| T179V | disrupting interaction |
